# T1: human DLL3 extracellular domain (ECD) with C-terminal 8xHis tag and Avi tag (human, UniProt Q9NYJ7 27-492)
# T1 construct: extracellular domain; Expressed in Expi293, purified by IMAC and SEC; also called huDLL3; not shown: Avi tag
# T1 sequence: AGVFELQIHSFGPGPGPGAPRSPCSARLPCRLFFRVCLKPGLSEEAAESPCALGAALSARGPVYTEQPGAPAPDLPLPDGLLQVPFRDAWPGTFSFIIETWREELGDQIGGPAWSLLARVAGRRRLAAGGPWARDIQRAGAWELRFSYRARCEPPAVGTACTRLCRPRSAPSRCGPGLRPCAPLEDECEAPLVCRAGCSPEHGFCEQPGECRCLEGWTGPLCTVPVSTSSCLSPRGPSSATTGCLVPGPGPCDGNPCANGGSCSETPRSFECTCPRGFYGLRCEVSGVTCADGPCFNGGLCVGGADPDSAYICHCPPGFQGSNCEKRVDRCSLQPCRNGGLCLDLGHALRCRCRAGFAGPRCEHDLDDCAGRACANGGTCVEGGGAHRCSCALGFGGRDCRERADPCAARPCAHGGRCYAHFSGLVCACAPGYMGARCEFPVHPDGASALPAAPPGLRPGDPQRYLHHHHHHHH
# T2: Flag tagged recombinant DLL3 (Adipogen) (Homo sapiens (Human), UniProt Q9NYJ7 27-492)
# T2 construct: Bought reagent; also called Flag-DLL3
# T2 sequence: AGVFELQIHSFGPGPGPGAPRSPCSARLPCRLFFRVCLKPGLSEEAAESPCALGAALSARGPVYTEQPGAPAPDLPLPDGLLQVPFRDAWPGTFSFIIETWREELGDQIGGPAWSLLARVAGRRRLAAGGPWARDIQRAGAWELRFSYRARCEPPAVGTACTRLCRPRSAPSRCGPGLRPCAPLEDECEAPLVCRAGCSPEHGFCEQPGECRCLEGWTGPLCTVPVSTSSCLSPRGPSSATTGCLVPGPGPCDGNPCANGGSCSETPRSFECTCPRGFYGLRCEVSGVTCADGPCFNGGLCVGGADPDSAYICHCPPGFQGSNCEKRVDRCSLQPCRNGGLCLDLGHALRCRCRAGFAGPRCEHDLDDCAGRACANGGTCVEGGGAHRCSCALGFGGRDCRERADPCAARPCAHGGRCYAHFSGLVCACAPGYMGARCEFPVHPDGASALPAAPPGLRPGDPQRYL
# Tests used:
# [1] = biological target: T1, human DLL3 extracellular domain (ECD) …; test: SPR (Biacore), 37 C; IgG captured on chip, human DLL3 ECD in solution; 1:1 Langmuir fit
# Protocol: The antibody binding kinetics were determined by surface plasmon resonance (Biacore™ surface plasmon resonance (SPR) system, GE Healthcare Bio-Sciences, Pittsburgh Pa.). The antibodies diluted in HBS-T+ running buffer (0.01 M HEPES pH 7.4, 0.15 M NaCl, 0.05% v/v Tween20, 1 mg/mL BSA) were captured on a CM4 chip immobilized with an antibody specific for the anti-DLL3 antibody constant domains. Purified DLL3 was serially diluted into HBS-T+, injected for 2 min at 30 uL/min and a dissociation time of 10 min then the surface regenerated with either 10 mM Glycine-HCl pH 1.7 or phosphoric acid between injections. […] Equilibrium dissociation constant (Kd) values are calculated as koff/kₒₙ.
# [2] = biological target: T2, Flag tagged recombinant DLL3 (Adipogen); test: flow cytometry, percent of T cells that recognise recombinant DLL3, Donor 503
# Protocol: (§1) To determine the percentage of T cells that were successfully transduced with DLL3 CAR, T cells were first incubated with 1 ug/ml Flag tagged recombinant DLL3 (Adipogen) in PBS+1% BSA for 20 minutes at 4 C.
# [3] = biological target: T2, Flag tagged recombinant DLL3 (Adipogen); test: flow cytometry, percent of T cells that recognise recombinant DLL3, Donor 772
# Protocol: as §1
# [4] = biological target: T2, Flag tagged recombinant DLL3 (Adipogen); test: flow cytometry, primary T cells with the CAR, 1 ug/ml Flag tagged recombinant DLL3, PE anti-Flag
# Protocol: as §1
Kd [1],Transduction efficiency [2],Transduction efficiency [3],"Rec-DLL3 gate, percent of live CD3+ cells [4]",Binder
18.5 nM,,,,"anti-DLL3 antibody 4H8 (IgG) (antibody, V domains shown, Full-length monoclonal antibody (IgG)) VH: QVQLQQSGPGLVKPSQTLSLTCAISGDSVSSNSATWNWIRQSPSRGLEWLGRTYYRSKWYDDYAVSVKSRITINPDTSKNHLSLHLNSVTPEDTAVYYCAGGGLVGAPDGFDVWGQGTMVTVSS VL: not shown"
5.49 nM,,,,"anti-DLL3 antibody 17A2 (IgG) (antibody, V domains shown, Full-length monoclonal antibody (IgG)) VH: QVQLQESGPGLVKPSGTLSLTCVVFGDSISSSNWWSWVRQPPGKGLEWIGEVFHSGSTNYNPSLKSRVTISVDKSKNQFSLKLSSVTAADTAVYYCARAAVAGALDYWGQGTLVTVSS VL: not shown"
14.8 nM,,,,"anti-DLL3 antibody 3F2 (IgG) (antibody, V domains shown, Full-length monoclonal antibody (IgG)) VH: QVQLQESGPGLVKPSGTLSLTCAVSGGSISSNNWWSWVRQPPGKGLEWIGDIHHSGSTNYKPSLKSRVTISVDKSKNQFSLNLISVTAADTAVYYCAREAGGYFDYWGQGILVTVSS VL: DIQMTQSPSTLSASVGDRVTITCRASQSISSWLAWYQQKPGKAPKLLISKASSLESGVPSRFSGSGSGPEFTLTISSLQPADFATYYCQQYNSYSTFGQGTKLEIK"
38.1 nM,,,,"anti-DLL3 antibody 2G1 (IgG) (antibody, V domains shown, Full-length monoclonal antibody (IgG)) VH: QLQLQESGPGLVKPSETLSLTCTVSGGSISSSSYYWGWIRQPPGKGLEWIGSIYYSGNIYHNPSLKSRVSISVDTSKNQFSLRLSSVTAADTAVYYCAREIIVGATHFDYWGQGTLVTVSS VL: AIQMTQSPSSLSASVGDRVTITCRASQGIRNDLGWYQQKPGKAPELLIYAASSLQSGVPSRFSGSGSGTDFTLTISSLQPEDFATYYCLQDYNYPLTFGPGTKVDIK"
,41.4%,35.6%,56.3%,"9H12-K (other, also called anti-DLL3 CAR with 9H12-K scFv, on primary T cells) CAR: QVQLVQSGAEVKKPGASVKVSCKASGYTFTGYSIHWVRQAPGQGLEWMGWINPNSGGTFYAQKFQGRVTMTRDTSISTVYMELSRLRSDDTAVYYCARDGWGDYYYYGLDVWGQGTTVTVSLGGGGSGGGGSGGGGSGGGGSDIQMTQSPSSVSASVGDRVTITCRASQDISSWLAWYQQKPGKAPKLLIYTASSLQGGVPSRFSGSGSGTDFTLTISSLQPEDLATYSCQQANVFPYTFGQGTKLEIKTTTPAPRPPTPAPTIASQPLSLRPEACRPAAGGAVHTRGLDFACDIYIWAPLAGTCGVLLLSLVITKRGRKKLLYIFKQPFMRPVQTTQEEDGCSCRFPEEEEGGCELRVKFSRSADAPAYQQGQNQLYNELNLGRREEYDVLDKRRGRDPEMGGKPRRKNPQEGLYNELQKDKMAEAYSEIGMKGERRRGKGHDGLYQGLSTATKDTYDALHMQALPPR"
4.8 nM,,,,"anti-DLL3 antibody 11A3 (IgG) (antibody, V domains shown, Full-length monoclonal antibody (IgG)) VH: QVQLQESGPGLVKPSETLSLTCTVSSDSISNYYWSWIRQPPGKGLEWISYIYYSGITNYNPSLKSRVTISVDTSKNQFSLKLSSVTAADTAVYYCARITVTGFYFDYWGQGTLVTVSS VL: EIVLTQSPGTLSLSPGERATLSCRASQSISRSYLAWYQQKPGQAPRHLIYGASSRATGIPDRFSGSGSGTDFILTISRLEPEDFAVYYCQQYDTSPLTFGGGTKVEIK"
,42.1%,20%,57.3%,"11A3 (other, also called anti-DLL3 CAR with 11A3 scFv, on primary T cells) CAR: QVQLQESGPGLVKPSETLSLTCTVSSDSISNYYWSWIRQPPGKGLEWISYIYYSGITNYNPSLKSRVTISVDTSKNQFSLKLSSVTAADTAVYYCARITVTGFYFDYWGQGTLVTVSSGGGGSGGGGSGGGGSGGGGSEIVLTQSPGTLSLSPGERATLSCRASQSISRSYLAWYQQKPGQAPRHLIYGASSRATGIPDRFSGSGSGTDFILTISRLEPEDFAVYYCQQYDTSPLTFGGGTKVEIKTTTPAPRPPTPAPTIASQPLSLRPEACRPAAGGAVHTRGLDFACDIYIWAPLAGTCGVLLLSLVITKRGRKKLLYIFKQPFMRPVQTTQEEDGCSCRFPEEEEGGCELRVKFSRSADAPAYQQGQNQLYNELNLGRREEYDVLDKRRGRDPEMGGKPRRKNPQEGLYNELQKDKMAEAYSEIGMKGERRRGKGHDGLYQGLSTATKDTYDALHMQALPPR"
26.5 nM,,,,"anti-DLL3 antibody 6F8 (IgG) (antibody, V domains shown) VH: QVQLVQSGAEVKKPGSSVKVSCKASGGTFTNYCISWVRQAPGQGLEWMGGIIPIFGTTNYAQTFQGRVTITADKSTSTAYMELSSLRSEDTAVYYCARDNGDRYYYDMDVWGQGTTVTVSS VL: QSVLTQPPSVSAAPGQKVTISCSGSSSNIGNNYVSWYQQLPGTAPKLLIYDNNKRPSGIPDRFSGSKSGTSATLGITGLQTGDEADYYCGTWDSSLSAVVFGGGTKLTVL"
,39.3%,27.2%,77.9%,"4H8 (other, also called anti-DLL3 CAR with 4H8 scFv, on primary T cells) CAR: QVQLQQSGPGLVKPSQTLSLTCAISGDSVSSNSATWNWIRQSPSRGLEWLGRTYYRSKWYDDYAVSVKSRITINPDTSKNHLSLHLNSVTPEDTAVYYCAGGGLVGAPDGFDVWGQGTMVTVSSGGGGSGGGGSGGGGSGGGGSQSVLTQPPSASGTPGQRVTISCSGSSSNIGSDPVNWYQQLPGTAPKLLIYSNNQRPSGVPDRFSGSKSGTSASLAISGLQSEDEADYYCSAWDDSLNGYVFGTGTKVTVLTTTPAPRPPTPAPTIASQPLSLRPEACRPAAGGAVHTRGLDFACDIYIWAPLAGTCGVLLLSLVITKRGRKKLLYIFKQPFMRPVQTTQEEDGCSCRFPEEEEGGCELRVKFSRSADAPAYQQGQNQLYNELNLGRREEYDVLDKRRGRDPEMGGKPRRKNPQEGLYNELQKDKMAEAYSEIGMKGERRRGKGHDGLYQGLSTATKDTYDALHMQALPPR"
,53.7%,33.7%,51.8%,"10G1-K (other, also called anti-DLL3 CAR with 10G1-K scFv, on primary T cells) CAR: EVQLLESGGGLVQPGGSLRLSCAASGFTFSSYAMNWVRQAPGKGLEWVSTISGSGGSTYYADSVKGRFTISRDNSKNTLYLQMNSLRAEDTAVFYCAIDPEYYDILTGGDYWGQGTLVTVSSGGGGSGGGGSGGGGGSGGGGSDIQMTQSPSAMSASVGDRVTITCRASQGISNYLAWFQQKPGKVPKRLIYAASSLQSGVPSRFSGSGSGTEFTLTISSLQPEDFATYFCLQHDSFPLTFGGGTKVEIKTTTPAPRPPTPAPTIASQPLSLRPEACRPAAGGAVHTRGLDFACDIYIWAPLAGTCGVLLLSLVITKRGRKKLLYIFKQPFMRPVQTTQEEDGCSCRFPEEEEGGCELRVKFSRSADAPAYQQGQNQLYNELNLGRREEYDVLDKRRGRDPEMGGKPRRKNPQEGLYNELQKDKMAEAYSEIGMKGERRRGKGHDGLYQGLSTATKDTYDALHMQALPPR"
12.7 nM,,,,"anti-DLL3 antibody 7F9 (IgG) (antibody, V domains shown, Full-length monoclonal antibody (IgG)) VH: EVQLVESGGGLVQPGGSLRLSCAASGFTFSSHDMHWVRQATGKGLEWVSAIGIAGDTYYSGSVKGRFTISRENAKNSLYLQMNSLRAGDTAVYYCARANWGEGAFDIWGQGTMVTVSS VL: DIQMTQSPSSLSASVGDRVTITCRASQGISDYLAWYQQKPGKIPKLLIYAASTLQSGVPSRFSGSGSGTDFTLTISSLQPEDVATYYCQKYNSVPLTFGGGTKVEIK"
5.47 nM,,,,"anti-DLL3 antibody 2D3 (IgG) (antibody, V domains shown, Full-length monoclonal antibody (IgG)) VH: QVQLQESGPGLVKPSETLSLTCTVSDNSISNYYWSWIRQPPGKGLEWIAYIYYSGTTNYNPSLKSRVTISLDTSKNQFSLKLSSVTAADTAVYYCARLFNWGFAFDIWGQGTMVTVSS VL: not shown"
5.86 nM,,,,"anti-DLL3 antibody 8E11 (IgG) (antibody, V domains shown, Full-length monoclonal antibody (IgG)) VH: QVQLQESGPGLVKPSETLSLTCTVSGDSISNYYWTWIRQPPGKGLEWIGYIYYSGTTNSNPSLKSRVTVSLDTSKSQFSLNLSSVTAADTAVYYCARVFNRGFAFDIWGQGTMVTVSS VL: EIVLTQSPGTLSLSPGERATLSCRASQRISNTYLAWYQQKPGQAPRLLIYGASSRATGIPDRFSGSGSGTDFTLTISRLEPEDFAAYYCQQYDTSPLTFGGGTKVEIK"
23.4 nM,,,,"anti-DLL3 antibody 2A6.C5 (IgG) (antibody, V domains shown, Full-length monoclonal antibody (IgG)) VH: QVQLQESGPGLVKPSETLSLTCTVSNVSISSYYWSWIRQPPGKGLEWIGYIYYSGTTNYNPSLKSRVTMSVDTSKNQFSLKLSSVTAADTAVYFCARLSNWGFAFDIWGQGTMVTFSS VL: EIVLTQSPGTLSLSPGERATLSCRASQTISSSYLAWYQQKPGQAPRLLIYGASSRATGIPDRFSGSGSGTEFTLTISRLEPEDFAVYYCQQYGWSPITFGQGTRLEIK"
21.1 nM,,,,"anti-DLL3 antibody 9D3 (IgG) (antibody, V domains shown, Full-length monoclonal antibody (IgG)) VH: QVQLQESGPGLVKPSETLSLTCTVSDDSISNYYWSWIRQPPGKGLEWIGYIFYSGTTNHNPSLKSRLTISLDKAKNQFSLRLSSVTAADTAVYYCARVFNWGFAFDIWGQGTMVTVSS VL: EIVLTQSPGTLSLSPGERATLSCRASQRISRTYLAWYQQKPGQAPRLLIYGASSRATGIPDRFTGSGSGTDFTLTISRLEPEDFAVYYCQQYGTSPLTFGGGTKVEIN"
